Test results published in patent US20090269277A1.

Tests used:
CEA = CEA (UniProt P06731); experiment: SE-HPLC of 125I-TF2 mixed with a 20-fold molar excess of CEA
[1] = molecular target: recombinant human RIIalpha (commercial sample) (human) (UniProt P13861); experiment: equilibrium SE-HPLC
recombinant human RIIalpha (commercial sample) (human), sequence (P13861 whole entry): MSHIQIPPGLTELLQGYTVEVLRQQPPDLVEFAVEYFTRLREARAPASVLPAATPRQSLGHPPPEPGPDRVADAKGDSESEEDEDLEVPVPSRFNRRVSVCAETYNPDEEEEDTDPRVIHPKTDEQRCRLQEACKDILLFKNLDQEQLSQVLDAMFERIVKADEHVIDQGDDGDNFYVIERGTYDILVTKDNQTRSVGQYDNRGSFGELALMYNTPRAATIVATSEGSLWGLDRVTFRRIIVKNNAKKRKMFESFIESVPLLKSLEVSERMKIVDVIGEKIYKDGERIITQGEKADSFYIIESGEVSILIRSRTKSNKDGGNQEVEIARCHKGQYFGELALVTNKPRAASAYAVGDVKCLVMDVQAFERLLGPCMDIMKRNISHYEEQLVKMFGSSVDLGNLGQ

CEA, sequence (P06731 35-685 limits assumed): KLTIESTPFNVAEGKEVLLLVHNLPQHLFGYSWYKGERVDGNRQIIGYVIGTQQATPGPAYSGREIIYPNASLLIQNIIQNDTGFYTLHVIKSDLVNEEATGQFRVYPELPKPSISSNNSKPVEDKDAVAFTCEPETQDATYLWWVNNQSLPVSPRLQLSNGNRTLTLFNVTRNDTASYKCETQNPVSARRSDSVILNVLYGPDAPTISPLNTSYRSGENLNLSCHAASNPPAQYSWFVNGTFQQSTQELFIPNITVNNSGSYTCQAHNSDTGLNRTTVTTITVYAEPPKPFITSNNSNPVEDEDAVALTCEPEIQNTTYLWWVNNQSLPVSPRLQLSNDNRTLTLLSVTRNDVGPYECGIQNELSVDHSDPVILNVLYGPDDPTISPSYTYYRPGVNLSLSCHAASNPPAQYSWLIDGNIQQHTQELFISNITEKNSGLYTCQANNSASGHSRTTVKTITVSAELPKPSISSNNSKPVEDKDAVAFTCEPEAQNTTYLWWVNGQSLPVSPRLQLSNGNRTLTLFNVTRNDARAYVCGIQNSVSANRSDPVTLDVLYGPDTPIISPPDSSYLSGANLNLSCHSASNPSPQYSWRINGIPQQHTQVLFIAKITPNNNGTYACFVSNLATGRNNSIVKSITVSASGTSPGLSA

Row | Molecule | percent of labeled TF2 shifted to a high molecular weight species (CEA) | Kd [1]
1 | TF2 (bispecific antibody) | 95% | 
2 | PKSCGGGGSGGGGSGGGGSQIEYLAKQIVDNAIQQA (Fab, part only; not given: h679 Fd and light chain, part only) [h679-Fab-AD1] |  | 30 nM
